Assay results taken from US20190062420A1 (Janssen / Centocor, published 2019).
Blank lines part the entries; values can stand above or below the binder they belong to.

Key:
[1] = target: T1, human FcγRIIB (NM_004001) expressed on cells (human, UniProt P31994 43-310); test: flow cytometry; Raji cells (express predominantly FcγRIIB)
T1 construct: Transiently expressed on Expi293F cells; also called Expi293F FcγRIIB; HEK293F cells expressing FcγRIIB
T1 sequence: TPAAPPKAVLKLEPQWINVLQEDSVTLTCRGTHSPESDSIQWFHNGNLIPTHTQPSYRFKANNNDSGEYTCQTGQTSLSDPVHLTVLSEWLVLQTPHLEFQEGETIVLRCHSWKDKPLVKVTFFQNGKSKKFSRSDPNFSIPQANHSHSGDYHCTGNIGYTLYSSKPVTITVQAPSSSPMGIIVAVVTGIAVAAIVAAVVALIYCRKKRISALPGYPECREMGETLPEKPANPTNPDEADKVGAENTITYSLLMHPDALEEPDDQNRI
How it was run: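 Raji B cells, predominantly FcγRIIB-expressing, BSA-blocked, then incubated with mAbtyrin titrations 1.5 h at 4° C. Bound antibody detected with PE-labeled anti-human IgG F(ab′) 45 min at 4° C. Geometric mean fluorescence from ≥10,000 DRAQ7-excluded live cells; EC₅₀ by nonlinear regression of log concentration.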

[2] = target: T2, human FcγRIIA (NM_021642) expressed on cells (human, UniProt P12318 36-317); test: cell-based or functional assay
T2 sequence: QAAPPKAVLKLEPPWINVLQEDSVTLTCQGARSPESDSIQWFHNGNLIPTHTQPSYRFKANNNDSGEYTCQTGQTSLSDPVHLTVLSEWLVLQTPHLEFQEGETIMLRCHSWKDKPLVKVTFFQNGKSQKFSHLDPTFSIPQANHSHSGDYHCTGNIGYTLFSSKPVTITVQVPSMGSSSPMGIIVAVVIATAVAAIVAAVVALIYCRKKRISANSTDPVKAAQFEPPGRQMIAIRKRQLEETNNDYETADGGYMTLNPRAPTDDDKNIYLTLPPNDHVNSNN

[3] = target: T2, human FcγRIIA (NM_021642) expressed on …; test: flow cytometry; Expi293F cells transfected with FcγRIIA
[4] = target: T1, human FcγRIIB (NM_004001) expressed on …; test: cell-based or functional assay
[5] = target: T3, human FcγRI (NM_000566) expressed on cells (human, UniProt P12314 16-374); test: flow cytometry; Expi293F cells transfected with FcγRI
T3 construct: Transiently expressed on Expi293F cells
Description: Plasmids expressing cDNAs encoding human FcγRI (NM_000566) (SEQ ID NO: 44), FcγRIIA (NM_021642) (SEQ ID NO: 2), FcγRIIB (NM_004001) (SEQ ID NO: 3), and FcγRIIIA (NM_000569) (SEQ ID NO: 45) (Origene) were transiently transfected into Expi293F cells by ExpiFectamine293 transfection kit (Life Technologies). Flow cytometry assays were performed 48 h after transfection.
2×10⁵ cells per well were seeded in 96-well plate and blocked in BSA Stain Buffer (BD Biosciences, San Jose, USA) for 30 min at 4° C. Cells were incubated with test mAbtyrin on ice for 1.5 h at 4° C. After being washed twice with BSA stain buffer, the cells were incubated with R-PE labeled anti-human or anti-mouse IgG secondary antibody (Jackson Immunoresearch Laboratories) for 45 min at 4° C. The cells were washed twice in stain buffer and then resuspended in 150 μL of Stain Buffer containing 1:200 diluted DRAQ7 live/dead stain (Cell Signaling Technology, Danvers, USA). PE and DRAQ7 signals of the stained cells were detected by Miltenyi MACSQuant flow cytometer (Miltenyi Biotec, Auburn, USA) using B2 and B4 channel respectively. Live cells were gated on DRAQ7 exclusion and the geometric mean fluorescence signals were determined for at least 10,000 live events collected. FlowJo software (Tree Star) was used for analysis. Data was plotted as the logarithm of antibody concentration versus mean fluorescence signals. Nonlinear regression analysis was performed by GraphPad Prism 6 (GraphPad Software, Inc.) and EC₅₀ values were calculated.

FcγRIIB protein = target: T4, FcγRIIB protein (human, UniProt P31994 43-217, biotinylated (SureLINK Biotin Kit) in the ELISA of Example 1); test: ELISA; FcγRIIB protein coated on plate, anti-human IgG-HRP detection
T4 construct: Soluble/recombinant antigen used in ELISA; also called bt-FcγRIIB; recombinant FcγRIIB protein
T4 sequence: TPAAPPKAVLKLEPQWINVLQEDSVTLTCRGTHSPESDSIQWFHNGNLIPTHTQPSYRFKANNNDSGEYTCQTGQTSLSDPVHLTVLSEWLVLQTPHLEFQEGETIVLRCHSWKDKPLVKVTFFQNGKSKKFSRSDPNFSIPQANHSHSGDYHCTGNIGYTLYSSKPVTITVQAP
Description: Effect of the mAbtyrins on T cell activation was evaluated. Briefly, recombinant FcγRIIB or FcγRIIA protein was coated on the plate to provide the crosslinking activity. For T cell activation assay, 100 μL of 30 ng/mL anti-CD3 antibody (OKT3) and 1 μg/mL FcγRIIB or FcγRIIA protein in DPBS were coated in U-bottomed 96-well tissue culture plate overnight. CD4 positive T cells were isolated from PBMC by negative selection. OX40 expression was induced by culturing the isolated T cells in the presence of 1 μg/mL PHA overnight. On the assay day, the coating solution in the plate were aspirated and 150 μL RPMI media was added to block the plate. The cultured T cells were washed three times by RPMI culture media and between 25,000 to 50,000 CD4 positive T cells were seeded in each well in the assay plate. Test mAbtyrins were added to the cells and the plate was incubated for 3 days. T cell activation was assessed by the induction of IFNγ or TNFα production, which was quantitated by human IFNγ or TNFα ELISA detection kit (Biolegend). Prior to T cell activation assay, the binding affinity of mAbtyrins to immobilized FcγRIIB or FcγRIIA protein were evaluated by an ELISA assay. […] The binding of mAbtyrins to immobilized FcγRIIB or FcγRIIA protein were detected by HRP-conjugated anti-Human IgG(γ) secondary antibody and quantitated by ELISA assay using TMB substrate.

T3 sequence (P12314 16-374 limits assumed): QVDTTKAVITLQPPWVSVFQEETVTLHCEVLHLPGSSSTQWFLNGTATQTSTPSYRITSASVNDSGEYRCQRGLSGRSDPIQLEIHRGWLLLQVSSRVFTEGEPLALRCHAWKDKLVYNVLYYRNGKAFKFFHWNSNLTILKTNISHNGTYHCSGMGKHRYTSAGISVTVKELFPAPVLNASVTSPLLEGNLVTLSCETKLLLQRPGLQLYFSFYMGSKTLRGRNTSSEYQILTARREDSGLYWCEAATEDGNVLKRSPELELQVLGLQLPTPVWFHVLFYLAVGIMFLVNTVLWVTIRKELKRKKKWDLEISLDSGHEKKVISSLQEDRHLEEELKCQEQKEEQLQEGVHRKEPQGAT

Binding to Raji cells mean signals at 10 µg/ml [1]: 11900 mean fluorescence signal
EC50 [1]: 1.44 µg/mL
EC50 [3]: 0.091 µg/mL
fold of agonism enhancement upon crosslinking (Daudi cells) [4]: 45 fold
EC50 [5]: > 10 µg/mL
B1: OX40SF2IgG2sigma_R2BS29_HC-C (bispecific antibody)
heavy: QVQLVQSGAEVKKPGSSVKVSCKASGYTFKDYTMHWVRQAPGQGLEWIGGIYPNNGGSTYNQNFKDRVTLTADKSTSTAYMELSSLRSEDTAVYYCARMGYHGPHLDFDVWGQGTTVTVSSASTKGPSVFPLAPCSRSTSESTAALGCLVKDYFPEPVTVSWNSGALTSGVHTFPAVLQSSGLYSLSSVVTVPSSNFGTQTYTCNVDHKPSNTKVDKTVERKCCVECPPCPAPPAAASSVFLFPPKPKDTLMISRTPEVTCVVVDVSAEDPEVQFNWYVDGVEVHNAKTKPREEQFNSTFRVVSVLTVLHQDWLNGKEYKCKVSNKGLPSSIEKTISKTKGQPREPQVYTLPPSREEMTKNQVSLTCLVKGFYPSDIAVEWESNGQPENNYKTTPPMLDSDGSFFLYSKLTVDKSRWQQGNVFSCSVMHEALHNHYTQKSLSLSPGKGGGGGSGGGGSGGGGSGGGGSLPAPKNLVVSRVTEDSARLSWTAPDAAFDSFPIYYWEYRVGGEAIVLTVPGSERSYDLTGLKPGTEYFVYINGVKGGEESRPLSAIFTT
light: DIQMTQSPSSLSASVGDRVTITCKASQDVGAAVAWYQQKPGKAPKLLIYWASTRHTGVPSRFSGSGSGTDFTLTISSLQPEDFATYYCQQYINYPLTFGGGTKVEIKRTVAAPSVFIFPPSDEQLKSGTASVVCLLNNFYPREAKVQWKVDNALQSGNSQESVTEQDSKDSTYSLSSTLTLSKADYEKHKVYACEVTHQGLSSPVTKSFNRGEC
notes: mAbtyrin: anti-OX40 antibody OX40SF2, effector silent IgG2sigma, with linker and R2BS29 FN3 domain at the C-terminus of the heavy chain; also called mAbtyrin
% OX40 cell killed by macrophages (ADCP, 1 µg/ml) [2]: 88%

binding result (FcγRIIB protein): no binding
Binding to Raji cells mean signals at 10 µg/ml [1]: 330 mean fluorescence signal
EC50 [1]: > 10 µg/mL
EC50 [3]: > 10 µg/mL
fold of agonism enhancement upon crosslinking (Daudi cells) [4]: 1 fold
B2: OX40SF2IgG2sigma (antibody)
heavy: QVQLVQSGAEVKKPGSSVKVSCKASGYTFKDYTMHWVRQAPGQGLEWIGGIYPNNGGSTYNQNFKDRVTLTADKSTSTAYMELSSLRSEDTAVYYCARMGYHGPHLDFDVWGQGTTVTVSSASTKGPSVFPLAPCSRSTSESTAALGCLVKDYFPEPVTVSWNSGALTSGVHTFPAVLQSSGLYSLSSVVTVPSSNFGTQTYTCNVDHKPSNTKVDKTVERKCCVECPPCPAPPAAASSVFLFPPKPKDTLMISRTPEVTCVVVDVSAEDPEVQFNWYVDGVEVHNAKTKPREEQFNSTFRVVSVLTVLHQDWLNGKEYKCKVSNKGLPSSIEKTISKTKGQPREPQVYTLPPSREEMTKNQVSLTCLVKGFYPSDIAVEWESNGQPENNYKTTPPMLDSDGSFFLYSKLTVDKSRWQQGNVFSCSVMHEALHNHYTQKSLSLSPGK
light: B1 light
notes: Anti-OX40 antibody, IgG2 sigma isotype (effector silent Fc: V234A, G237A, P238S, H268A, V309L, A330S, P331S against wild type IgG2); control without FN3 domain; also called parental antibody; parental OX40 antibody
% OX40 cell killed by macrophages (ADCP, 1 µg/ml) [2]: 12%

binding result (FcγRIIB protein): no binding
EC50 [5]: 0.494 µg/mL
B3: OX40SF2IgG1 (antibody)
heavy: not shown
light: B1 light
notes: Anti-OX40 antibody, wild-type IgG1; control without FN3 domain
